Source: patent US20220160842A1, “METHOD OF TREATING INFECTIVE ENDOCARDITIS” (priority 2019, published 2022)
≈ marks a conversion by molar mass, not a printed value. Where “and” joins values, the source holds several entries; their conditions need not be identical. Equal values may be shown once. Read-outs that look alike come from different tables or passages of the source.

What was measured:
[1] = tested on: S. aureus (MRSA); experiment: MIC by broth microdilution; format: cell-based, Staphylococcus aureus; conditions: S. aureus (MRSA), N=74
Description: (§1) Minimal inhibitory concentrations (MICs) of exebacase against staphylococci were determined by broth microdilution (BMD) using a nonstandard antimicrobial susceptibility testing (AST) medium comprised of cation-adjusted Mueller Hinton broth (caMHB) supplemented with horse serum (Sigma Aldrich) and dithiothreitol (DTT; Sigma Aldrich) to final concentrations of 25% and 0.5 mM, respectively. This medium, referred to as caMHB-HSD, is approved for use in exebacase AST by the Clinical and Laboratory Standards Institute (CLSI) (CLSI. 2017, Jan. 16-17. AST Subcommittee Working Group Meetings and Plenary. AST Meeting Files & Resources, clsi.org/education/microbiology/ast/ast-meeting-files-resources/. Additional supplementation with 2.5% lysed red blood cells (Remel™, ThermoFisher) was included for analyses of streptococcal isolates, as recommended by CLSI. See CLSI, 2015. Methods for Dilution Antimicrobial Susceptibility Tests for Bacteria That Grow Aerobically, 10th Edition. Clinical and Laboratory Standards Institute, Wayne, Pa.
(§2) Daptomycin (Sigma Aldrich) and vancomycin hydrochloride (Sigma Aldrich) were tested following the reference BMD method for each. See CLSI. 2015. Methods for Dilution Antimicrobial Susceptibility Tests for Bacteria That Grow Aerobically, 10th Edition. Clinical and Laboratory Standards Institute, Wayne, Pa.

[2] = tested on: S. aureus (MSSA); experiment: MIC by broth microdilution; format: cell-based, Staphylococcus aureus; conditions: S. aureus (MSSA), N=73
Description: as §1, §2

[3] = tested on: S. warneri; experiment: MIC by broth microdilution; format: cell-based, Staphylococcus warneri; conditions: S. warneri, N=23
Description: as §1, §2

[4] = tested on: all staphylococci tested; experiment: MIC by broth microdilution; format: cell-based
Description: as §2

[5] = tested on: S. sanguinis; experiment: MIC by broth microdilution; format: cell-based, Streptococcus sanguinis; conditions: S. sanguinis (viridans), N=15
Description: as §1, §2

[6] = tested on: S. pyogenes; experiment: MIC by broth microdilution; format: cell-based, Streptococcus pyogenes; conditions: S. pyogenes (group A), N=100
Description: as §1, §2

[7] = tested on: S. pneumoniae; experiment: MIC by broth microdilution; format: cell-based, Streptococcus pneumoniae; conditions: S. pneumoniae, N=59
Description: as §1, §2

[8] = tested on: MRSA strain MW2 (CA-MRSA; USA400); conditions: cited from earlier work
[9] = tested on: S. epidermidis; experiment: MIC by broth microdilution; format: cell-based, Staphylococcus epidermidis; conditions: N=52
Description: as §1, §2

[10] = tested on: Staphylococcus hominis; experiment: MIC by broth microdilution; format: cell-based; conditions: n=2 strains, listed as exebacase
Description: as §1

[11] = tested on: S. pseudintermedius; experiment: MIC by broth microdilution; format: cell-based, Staphylococcus pseudintermedius; conditions: each of n=6 isolates
Description: as §1

[12] = tested on: S. sciuri; experiment: MIC by broth microdilution; format: cell-based, Staphylococcus sciuri; conditions: n=3 isolates
Description: as §1

[13] = tested on: S. simulans; experiment: MIC by broth microdilution; format: cell-based, Staphylococcus simulans; conditions: n=1 isolate
Description: as §1

[14] = tested on: S. hyicus; experiment: MIC by broth microdilution; format: cell-based, Staphylococcus hyicus; conditions: n=1 isolate
Description: as §1

[15] = tested on: S. intermedius; experiment: MIC by broth microdilution; format: cell-based, Streptococcus intermedius; conditions: S. intermedius (viridans), N=10
Description: as §1, §2

[16] = tested on: S. aureus bacteremia/endocarditis; experiment: Phase II clinical study, CF-301 plus standard of care antibiotics; format: in vivo, human
Description: These 116 patients constituted the microbiological intent to treat (mITT) population of a Phase II clinical study and was the primary efficacy analysis population. The primary efficacy endpoint was the clinical responder rate (CRR) at Day 14. Diagnosis and clinical outcomes were determined by a blinded Adjudication Committee.

[17] = healthy subjects, estimated previously; cited from earlier work
[18] = Staphylococcus aureus, read-out: MIC50
[19] = Staphylococcus aureus, read-out: MIC90

With `CCCCCCCCCC(=O)N[C@@H](Cc1c[nH]c2ccccc12)C(=O)N[C@H](CC(N)=O)C(=O)N[C@@H](CC(=O)O)C(=O)N[C@@H]1C(=O)NCC(=O)N[C@@H](CCCN)C(=O)N[C@@H](CC(=O)O)C(=O)N[C@H](C)C(=O)N[C@@H](CC(=O)O)C(=O)NCC(=O)N[C@H](CO)C(=O)N[C@@H]([C@H](C)CC(=O)O)C(=O)N[C@@H](CC(=O)c2ccccc2N)C(=O)O[C@@H]1C` [DAP, Daptomycin] the “MIC Range” value [1] was 0.125 to 1 µg/mL, the MIC50 [1, 18] was 0.25 µg/mL (≈ 0.154 µM) and the MIC90 [1, 19] was 0.5 µg/mL (≈ 0.309 µM). The “MIC Range” value [2] was 0.125 to 0.5 µg/mL, the MIC50 [2, 18] was 0.25 µg/mL (≈ 0.154 µM) and the MIC90 [2, 19] was 0.25 µg/mL (≈ 0.154 µM). The “MIC Range” value [3] was 0.25 to 2 µg/mL, the MIC50 ([3]; Staphylococcus warneri, read-out: MIC50) was 0.5 µg/mL (≈ 0.309 µM) and the MIC90 ([3]; Staphylococcus warneri, read-out: MIC90) was 2 µg/mL (≈ 1.23 µM). The MIC Range [4] was 0.125 to 2 µg/mL, the “MIC Range” value [5] was 0.06 to 1 µg/mL and the MIC50 ([5]; Streptococcus sanguinis, read-out: MIC50) was 0.25 µg/mL (≈ 0.154 µM). For the same molecule, the MIC90 ([5]; Streptococcus sanguinis, read-out: MIC90) was 1 µg/mL (≈ 0.617 µM), the “MIC Range” value [6] was 0.016 to 0.06 µg/mL and the MIC50 ([6]; Streptococcus pyogenes, read-out: MIC50) was 0.03 µg/mL (≈ 0.0185 µM). The MIC90 ([6]; Streptococcus pyogenes, read-out: MIC90) was 0.06 µg/mL (≈ 0.037 µM), the “MIC Range” value [7] was 0.06 to 0.25 µg/mL and the MIC50 ([7]; Streptococcus pneumoniae, read-out: MIC50) was 0.125 µg/mL (≈ 0.0771 µM). For the same molecule, the MIC90 ([7]; Streptococcus pneumoniae, read-out: MIC90) was 0.5 µg/mL (≈ 0.309 µM) and the MIC [8] was 0.5 µg/mL (≈ 0.309 µM).

B1: CF-301: anti-staphylococcal lysin encoded within a prophage of the Streptococcus suis genome, SEQ ID NO: 2 with or without initial methionine (protein, listed as Streptococcus suis)
chain: MTTVNEALNNVRAQVGSGVSVGNGECYALASWYERMISPDATVGLGAGVGWVSGAIGDTISAKNIGSSYNWQANGWTVSTSGPFKAGQIVTLGATPGNPYGHVVIVEAVDGDRLTILEQNYGGKRYPVRNYYSAASYRQQVVHYITPPGTVAQSAPNLAGSRSYRETGTMTVTVDALNVRRAPNTSGEIVAVYKRGESFDYDTVIIDVNGYVWVSYIGGSGKRNYVATGATKDGKRFGNAWGTFK
With B1 the MIC50 [1] was 0.5 µg/mL, the MIC90 [1] was 1 µg/mL and the “MIC Range” value [1] was 0.5 to 2 µg/mL. For the same molecule, the MIC50 [2] was 0.5 µg/mL, the MIC90 [2] was 0.5 µg/mL and the “MIC Range” value [2] was 0.25 to 1 µg/mL. For the same molecule, the MIC50 [9] was 0.5 µg/mL, the MIC90 [9] was 0.5 µg/mL and the “MIC Range” value [9] was 0.125 to 2 µg/mL. The MIC50 [3] was 0.5 µg/mL, the MIC90 [3] was 1 µg/mL and the “MIC Range” value [3] was 0.06 to 1 µg/mL. For the same molecule, the MIC [10] was 0.125 µg/mL and 0.25 µg/mL, the MIC [11] was 0.25 µg/mL and the MIC [12] was 2 µg/mL. It also gave an MIC [13] of 0.125 µg/mL, an MIC [14] of 0.25 µg/mL and an MIC50 [5] of 4 µg/mL. For the same molecule, the MIC90 [5] was 16 µg/mL, the “MIC Range” value [5] was 2 to 32 µg/mL and the MIC50 [15] was 0.25 µg/mL. The MIC90 [15] was 0.25 µg/mL, the “MIC Range” value [15] was 0.06 to 0.5 µg/mL and the MIC50 [6] was 1 µg/mL. For the same molecule, the MIC90 [6] was 2 µg/mL, the “MIC Range” value [6] was 0.5 to 4 µg/mL and the MIC50 [7] was 4 µg/mL. The MIC90 [7] was 32 µg/mL, the “MIC Range” value [7] was 1 to 64 µg/mL and the hypersensitivity ([16]; CF-301 treatment group) was “no reports of hypersensitivity”. The “incidence of treatment emergent adverse events (TEAEs)” value ([16]; CF-301 treatment group) was 88.9%, the “serious TEAEs” value ([16]; CF-301 treatment group) was 47.2% and the “CRR higher than in patients treated with standard of care antibiotics alone” value ([16]; MRSA-infected patients) was “about 40%”. The CRR ([16]; MRSA-infected patients, CF-301 and standard of care antibiotics) was 74.10%, the tolerability ([16]; addition of CF-301 to a standard of care antibiotic regimen) was “well-tolerated” and the died ([16]; from study drug administration through 28 days after the end of SOC antibiotic treatment) was 19.4%. For the same molecule, the “clinical responder rate (CRR) at Day 14” value ([16]; mITT population, single two hour infusion of CF-301 plus SOC antibiotics) was 70.4%, the CRR ([16]; patients with bacteremia alone) was 81.8% and the CRR ([16]; subset with bacteremia/right-sided endocarditis) was 80%. The “effect of age on AUC0-24 or Cmax” value (covariate on peripheral clearance) was “less than 4%”, the “CL lower than in healthy subjects” value (patients vs healthy subjects) was 40% and the “Vd lower than in healthy subjects” value (patients vs healthy subjects) was 17%. For the same molecule, the “fold higher AUC0-24 or Cmax than patients with normal renal function” value (patients with moderate and severe renal impairment, expected from PPK model) was 1.3 to 2 fold, the Total volume distribution (patients, PPK model) was 20.2 L and the “central compartment (Vc)” value (patients, PPK model, RSE 8.2%) was 4.5 L. For the same molecule, the Clearance (patients, three-compartment PPK model, RSE 5.5%) was 4.2 Liters (L)/hour (hr), the MIC [8] was 1.0 µg/mL and the CL [17] was 7.1 L/h. For the same molecule, the “volume distribution (Vd)” value [17] was 27.7 L.
